Experimental data published in patent publication US11872268B2, “Safe and effective beta-lactamase dosing for microbiome protection” (Theriva Biologics, Inc., priority 2015, dated 2024).
Read-outs that look alike come from different tables or passages of the source.

Legend:
[1] = parameters: species or system human; conditions: in vivo
Experimental: (§1) This example evaluated the effects of two strengths of oral SYN-004 (75 mg or 150 mg) administered twice in six hours on the plasma pharmacokinetics (PK) and chyme concentrations of a single dose of ceftriaxone administered as an intravenous (IV) infusion (1 g infused over 30 minutes). Further, this example evaluated if SYN-004 was present in chyme, if there was absorption of SYN-004 into plasma, and the safety and tolerability of SYN-004 (75 mg or 150 mg) in combination with IV ceftriaxone.
This was a Phase 1, randomized, multi-center, open-label study. Ten otherwise healthy subjects with functioning ileostomies who were between the ages of 18 and 80 years, inclusive, were enrolled. As an overview, in the first treatment period (Period 1) all subjects received an IV infusion of 1 gram (g) ceftriaxone. In the second treatment period (Period 2) all subjects received an IV infusion of 1 g ceftriaxone and 2 doses of either 75 mg or 150 mg of SYN-004, according to the randomization schedule, and administered 30 minutes before and 5.5 hours after the ceftriaxone infusion. Subjects were screened for study participation within 45 days prior to Check-in (Day −1), and the entire duration of the study may be up to 64 days (from Screening to the end-of-study visit).
The active dosage form of SYN-004 being administered was a hard gelatin, size 0, opaque white capsule containing delayed-release mini-pellets. Subjects randomized to Treatment AB received two oral doses of SYN-004 75 mg (1×75 mg capsule) twice in one day on Day 1 of Period 2. Subjects randomized to Treatment AC received two oral doses of SYN-004 150 mg (2×75 mg capsules) twice in one day on Day 1 of Period 2.
Specifically, in Period 1, all subjects received an IV infusion of 1 g ceftriaxone administered over 30 minutes on Day 1. In Period 2, subjects again received an IV infusion of 1 g ceftriaxone administered over 30 minutes on Day 1, as well as two oral doses of SYN-004 (75 mg or 150 mg) 30 minutes before and 5.5 hours after the IV infusion of 1 g ceftriaxone. All subjects received an infusion of ceftriaxone 1 g over 30 minutes in Period 1 and a second identical, time matched infusion in Period 2. The exact time of day of dosing for consecutive subjects may be staggered (±1 hour) to accommodate sample collection logistics; however, the time of day of ceftriaxone administration on Day 1 in Periods 1 and 2 were consistent for each subject.
With respect to meals and fluid intake, on Day 1 in each period, subjects received a small non-fatty meal approximately 1 hour (7:00 AM) prior to administration of ceftriaxone and again 5 hours after the start of infusion (1:00 PM). Subjects received full meals at approximately 2 and 7.5 hours after the start of the infusion (10:00 AM and 3:30 PM), respectively. In order to generate sufficient chyme output, subjects drank 8 ounces of water or apple juice at the start of the infusion and at 0.5, 1, and 1.5 hours after the start of the infusion (i.e., every half hour between 8:00 AM and 9:30 AM); thereafter, subjects were encouraged to drink 8 ounces of water or apple juice hourly between 2 and 7 hours after the start of the infusion (10:00 AM to 3:00 PM).
On Day 1, Period 1, serial blood and chyme samples were collected from approximately 30 minutes pre-dose through approximately 7 hours for serial blood and 8.5 for chyme after the start of infusion for determination of ceftriaxone concentration. […]

[2] = Phase 1b/2a ileostomy study (Example 5): ceftriaxone plasma concentration; type: in vivo, human; conditions: 1 g IV with and without oral SYN-004 75 or 150 mg
Experimental: as §1
This was a Phase 1, randomized, multi-center, open-label study. Ten otherwise healthy subjects with functioning ileostomies who were between the ages of 18 and 80 years, inclusive, were enrolled. […]
Pharmacokinetics: Serial blood (5 mL each) and chyme samples (2 mL minimum) were collected on Day 1 of Period 1 and Period 2. The following PK parameters of SYN-004 and ceftriaxone were determined from the plasma and chyme concentration-time data for all evaluable subjects using non-compartmental methods: maximum observed plasma concentration (Cmax), area under the concentration-time curve from time 0 to the last quantifiable concentration (AUCt), and time to reach Cmax (Tmax) as applicable. In addition, area under the concentration-time curve from time 0 to infinity (AUC∞) was calculated where determinable.

[3] = parameters: species or system human; conditions: in vivo, po
Experimental: (§2) A Phase 1, double blind, randomized, placebo controlled study was carried out to assess the safety, tolerability, and PK of SYN-004 in healthy adult subjects. Specifically, multiple doses of oral SYN-004 capsules (75 mg, 150 mg, or 300 mg) were administered to the subjects at 4 doses per day for 7 days. Blood samples were collected for PK evaluation and determination of anti-SYN-004 antibodies. A total of 24 healthy adult subjects were enrolled in the study with 6 active and 2 placebo subjects per cohort.

[4] = human, in vivo
Experimental: as §2

[5] = human, in vivo, po
Experimental: A Phase 1, double blind, placebo controlled study was carried out to assess the safety, tolerability, and pharmacokinetics (PK) of SYN-004 in healthy adult subjects. Specifically, a single dose of oral SYN-004 capsule (75 mg, 150 mg, 300 mg, 600 mg, or 750 mg) was administered to subjects. Blood samples were collected for PK evaluation and determination of anti-SYN-004 antibodies. A total of 40 healthy adult subjects were enrolled in the study with 6 active and 2 placebo subjects per cohort.

SYN-004 = SYN-004 (Bacillus licheniformis, UniProt P00808, D288N); assay: SYN-004 activity in human intestinal chyme in the presence of beta-lactamase inhibitor (ceftriaxone by LC/MS-MS); type: biochemical; conditions: 20 mg/ml Sulbactam, 8 ug/ml SYN-004
Chain of SYN-004 (P00808 44-307 D288N): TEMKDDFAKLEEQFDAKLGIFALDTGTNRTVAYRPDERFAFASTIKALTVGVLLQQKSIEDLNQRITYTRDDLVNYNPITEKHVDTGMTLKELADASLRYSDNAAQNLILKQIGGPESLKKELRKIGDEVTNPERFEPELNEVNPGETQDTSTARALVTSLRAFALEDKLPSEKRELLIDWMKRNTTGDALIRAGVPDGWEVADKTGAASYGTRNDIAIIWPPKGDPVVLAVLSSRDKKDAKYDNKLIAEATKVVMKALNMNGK
Experimental: Ceftriaxone (at 3 ug/ml or 1500 ug/ml) was mixed with human intestinal chyme alone, or with chyme plus SYN-004 (8 ug/ml) or with chyme plus the beta-lactamase inhibitor sulbactam, (20 mg/ml) or chyme plus both and then the samples were flash frozen. The flash frozen samples were thawed on ice and sulbactam was added to some samples, the protein was precipitated with acetonitrile and the samples were analyzed for ceftriaxone concentration by LC/MS-MS. The table below provides results from triplicate samples.

CO/N=C(\C(=O)N[C@@H]1C(=O)N2C(C(=O)O)=C(CSc3nc(=O)c(=O)[nH]n3C)CS[C@H]12)c1csc(N)n1 [Ceftriaxone]
time ceftriaxone appeared in the chyme ([1]; human): 1.5 to 2.5 h | time of second peak of ceftriaxone in chyme ([1]; human): 6 to 8 h | peak ceftriaxone in chyme ([1]; human, iv): 115 to 1400 µg/mL | plasma concentration of ceftriaxone, Period 1 versus Period 2 [2]: no significant difference

SYN-004: beta-lactamase with the amino acid sequence of SEQ ID NO: 1; given orally as delayed-release capsule of enteric-coated pellets
degradation of ceftriaxone in chyme [1]: effectively degraded ceftriaxone | time measurable SYN-004 began to be detectable in the chyme [1]: 5.5 h | anti-SYN-004 antibodies [3]: No anti-SYN-004 antibodies were detected | systemic bioavailability [4]: not systemically bioavailable | systemic bioavailability [5]: not systemically bioavailable | Cmax (plasma) ([5]; 750 mg): 1.4 ng/mL | Tmax (plasma) ([5]; 750 mg): 1 to 4 h

CC1(C)[C@H](C(=O)O)N2C(=O)C[C@H]2S1(=O)=O [Sulbactam, sulbactam]
inhibition of SYN-004 activity in intestinal chyme (SYN-004): did not substantially inhibit SYN-004 activity
